# What was measured:
# HLA-A*02:01 = assay: IEDB peptide-MHC binding, purified MHC/competitive/fluorescence; ≥ and ≤ were set here for values at or beyond the usual limits of such assays
# HLA-A*03:01 = assay: IEDB peptide-MHC binding, purified MHC/direct/fluorescence; filed as Kd, often an IC50 or EC50 that approximates it; ≥ and ≤ were set here for values at or beyond the usual limits of such assays; conditions: source organism: Vibrio cholerae
# HLA-A*02:03 = assay: IEDB peptide-MHC binding, purified MHC/competitive/radioactivity; filed as Kd, often an IC50 or EC50 that approximates it; ≥ and ≤ were set here for values at or beyond the usual limits of such assays
# HLA-A*02:02 = assay: as above
# HLA-A*02:06 = assay: as above
# [1] = source organism: Zaire ebolavirus
# [2] = source organism: Vaccinia virus
# [3] = source organism: Vaccinia virus WR
# [4] = source organism: Mammarenavirus machupoense
# [5] = source organism: Lymphocytic choriomeningitis virus (strain Armstrong)
# [6] = source organism: SARS coronavirus Tor2
Sequence,Kd (HLA-A*02:03; [3]),Kd (HLA-A*02:02; [3]),Kd (HLA-A*02:06; [3]),other results
AKAIITPIV,,,,IC50 (HLA-A*02:01; source organism: Vaccinia virus Copenhagen): ≥ 147000 nM
RLEELLPAV,,,,IC50 (HLA-A*02:01; [1]): 1850 nM
LTTLATIST,,,,IC50 (HLA-A*02:01; [1]): 7630 nM
LSARHASGK,,,,Kd (HLA-A*03:01): 127 nM
RNLNVTTQS,,,,IC50 (HLA-A*02:01; [2]): ≥ 558000 nM
WIPYFGPGA,,,,IC50 (HLA-A*02:01; source organism: Sudan ebolavirus): 1460 nM
NETEYLFEV,,,,IC50 (HLA-A*02:01; [1]): 43600 nM
GLRQQLEDI,4.72 nM,43 nM,4310 nM,
SSWAVHWFS,,,,Kd (HLA-A*02:03; [4]): ≥ 78100 nM; Kd (HLA-A*02:02; [4]): 4640 nM; Kd (HLA-A*02:06; [4]): ≥ 46800 nM
LTGNNTITT,5620 nM,5750 nM,8680 nM,
ILPDKIDGL,3.45 nM,1.04 nM,43.1 nM,
VISTIANSNI,845 nM,282 nM,5160 nM,
LIFNVKSKLL,6690 nM,2390 nM,≥ 28500 nM,
ASDTPSATT,,,,IC50 (HLA-A*02:01; [1]): ≥ 614000 nM
DTCGASINIT,≥ 70400 nM,≥ 23600 nM,≥ 69800 nM,
MSCDDVVFGI,,,,Kd (HLA-A*02:03; [5]): 12100 nM; Kd (HLA-A*02:02; [5]): 1040 nM; Kd (HLA-A*02:06; [5]): 249 nM
NTLISSDGA,3570 nM,7410 nM,≥ 49400 nM,
SAIALGVAT,,,,IC50 (HLA-A*02:01; [1]): ≥ 242000 nM
YALEPRKEI,7070 nM,3700 nM,4110 nM,
LLLEWLAEV,,,,Kd (HLA-A*02:03; [6]): 0.627 nM; Kd (HLA-A*02:02; [6]): 0.114 nM; Kd (HLA-A*02:06; [6]): 0.105 nM
VIVENDNVI,19500 nM,15500 nM,7230 nM,
FLAHLQWFA,,,,Kd (HLA-A*02:03; [6]): 0.207 nM; Kd (HLA-A*02:02; [6]): 0.104 nM; Kd (HLA-A*02:06; [6]): 0.574 nM
SVNASKTINA,731 nM,17300 nM,≥ 28800 nM,
LTSVDIETAI,2150 nM,509 nM,3130 nM,
ALMDLLMFS,,,,Kd (HLA-A*02:03; [5]): 103 nM; Kd (HLA-A*02:02; [5]): 0.936 nM; Kd (HLA-A*02:06; [5]): 13.8 nM
FVTDYVHEGV,1.68 nM,23.8 nM,10.6 nM,
YISRDELWA,242 nM,333 nM,1200 nM,

Sequence,Kd (HLA-A*02:03; [3]),Kd (HLA-A*02:02; [3]),Kd (HLA-A*02:06; [3]),other results
ALIARCWYL,,,,Kd (HLA-A*02:03; [6]): 17.1 nM; Kd (HLA-A*02:02; [6]): 0.196 nM; Kd (HLA-A*02:06; [6]): 0.982 nM
IVPDADPPI,10700 nM,5080 nM,274 nM,
RSLETDLRS,,,,IC50 (HLA-A*02:01; [2]): ≥ 158000 nM
STAEQLSKYV,1870 nM,1060 nM,697 nM,
TQWSLFFFV,,,,Kd (HLA-A*02:03; [6]): 540 nM; Kd (HLA-A*02:02; [6]): 79.6 nM; Kd (HLA-A*02:06; [6]): 0.812 nM
TVLTSVDIET,915 nM,1720 nM,961 nM,
DTCLLAISAV,93.1 nM,2460 nM,106 nM,
GMQFDKVYL,277 nM,13.4 nM,1910 nM,
LMIGNYFSGV,0.0932 nM,0.126 nM,0.132 nM,
YIEDELRRAA,166 nM,628 nM,204 nM,
LMSFTILCL,,,,Kd (HLA-A*02:03; [6]): 16.3 nM; Kd (HLA-A*02:02; [6]): 0.269 nM; Kd (HLA-A*02:06; [6]): 1.84 nM
STDQDTMLFA,4700 nM,646 nM,2020 nM,
GLCNYGGIL,125 nM,97.7 nM,1360 nM,
RTWKVLSIMA,6050 nM,≥ 24000 nM,5750 nM,
DIMTSTRTI,78.6 nM,3450 nM,≥ 21800 nM,
SIMSMMNIT,681 nM,4970 nM,1760 nM,
SLVITYCLVT,566 nM,286 nM,824 nM,
DTDIVNNFI,19400 nM,9320 nM,15700 nM,
HLRASTTENA,37.9 nM,488 nM,≥ 69800 nM,
FTILEYLYI,169 nM,1560 nM,267 nM,
AVITETIPI,43.1 nM,324 nM,6.46 nM,
FVVFLLVTL,,,,Kd (HLA-A*02:03; [6]): 1640 nM; Kd (HLA-A*02:02; [6]): 217 nM; Kd (HLA-A*02:06; [6]): 37.7 nM
MAFILGIII,9760 nM,9530 nM,≥ 32500 nM,
TAGNKVDVDI,3500 nM,11000 nM,≥ 38000 nM,
IAGLKIEEI,6090 nM,7660 nM,1970 nM,
NTCKPTILAT,248 nM,460 nM,3920 nM,

# From the Immune Epitope Database (IEDB)
